Experimental data taken from patent publication US8147838B2, “Peptide” (priority 2005, dated 2012).

These sequences were tested against MHC class I allele A*0101 (A1) (Homo sapiens, UniProt P04439, A114D/A174V/A182V/D101N/D185E/E176A/E190D/L180R/Q94H/R68K/S129P/T187R/V100A/V91M/W191G) (assay: iTopia peptide binding assay, A*0101). Settings: percent of positive control peptide binding; peptide at 1.11×10^−5M.
Protocol: (§1) The 9 mers were tested for Peptide Binding, Off Rate and Affinity using iTopia Epitope Discovery System in accordance with the manufacturer's instructions. Briefly, 96 well microtitre plates coated with MHC molecules representing different MHC alleles are used to identify candidate peptides. […] Determinations are performed in duplicate using an ELISA plate reader and included allele specific positive controls.
(§2) i) Peptide Binding—This assay measures the ability of individual peptides to bind to the MHC molecules under standardized optimal binding conditions. The assay is performed for all the test peptides across the selected MHC alleles. The test peptides identified as “binders” are characterized further in terms of affinity and dissociation experiments.
(§3) Following a period of binding under optimal conditions, excess antibody is removed and a measurement of total fluorescence taken (D).
(§4) The binding of the test peptides to the MHC molecules was performed at 1.11×10^−5M of peptide under optimal, standardised test conditions. A control peptide was run in parallel on the same plate and at the same concentration as the test peptides.
(§5) The level of binding is expressed as a percent of positive control peptide binding for each allele.
For RRPPLAELA [Peptide 57], the “Peptide binding, MHC Class I Molecule A*0101” value was 2 % of control.
RTVKCVNRN [Peptide 37] was tested, and the “Peptide binding, MHC Class I Molecule A*0101” value was 7 % of control.
In the case of SADLDCDPI [Peptide 170], the “Peptide binding, MHC Class I Molecule A*0101” value is reported as 0 % of control.
In the case of SAQPPLPDQ [Peptide 27], the “Peptide binding, MHC Class I Molecule A*0101” value is reported as 2 % of control.
For SEAARTVKC [Peptide 35], the “Peptide binding, MHC Class I Molecule A*0101” value was 5 % of control.
In the case of SFRNLTHLE [Peptide 127], the “Peptide binding, MHC Class I Molecule A*0101” value is reported as 1 % of control.
SGSNASVSA [Peptide 82] was tested, and the “Peptide binding, MHC Class I Molecule A*0101” value was 5 % of control.
With SLRQLDLSH [Peptide 72] the “Peptide binding, MHC Class I Molecule A*0101” value was 0 % of control.
In the case of SSSPTSSAS [Peptide 16], the “Peptide binding, MHC Class I Molecule A*0101” value is reported as 4 % of control.
TDLPAYVRN [Peptide 44] was tested, and the “Peptide binding, MHC Class I Molecule A*0101” value was 7 % of control.
With TEVPTDLPA [Peptide 42] the “Peptide binding, MHC Class I Molecule A*0101” value was 3 % of control.
In the case of VKCVNRNLT [Peptide 38], the “Peptide binding, MHC Class I Molecule A*0101” value is reported as 6 % of control.
In the case of VQGKDRLTC [Peptide 158], the “Peptide binding, MHC Class I Molecule A*0101” value is reported as 0 % of control.
In the case of VRNLFLTGN [Peptide 47], the “Peptide binding, MHC Class I Molecule A*0101” value is reported as 0 % of control.
With VSAPSPLVE [Peptide 85] the “Peptide binding, MHC Class I Molecule A*0101” value was 3 % of control.
For VSSSSPTSS [Peptide 15], the “Peptide binding, MHC Class I Molecule A*0101” value was 3 % of control.
VVAALLAGR [Peptide 100] was tested, and the “Peptide binding, MHC Class I Molecule A*0101” value was 9 % of control.
With YHYRYEINA [Peptide 200] the “Peptide binding, MHC Class I Molecule A*0101” value was 0 % of control.
In the case of YRYEINADP [Peptide 201], the “Peptide binding, MHC Class I Molecule A*0101” value is reported as 0 % of control.

Each sequence was assayed against MHC class I allele A*0301 (A3) (Homo sapiens, UniProt P04439) (assay: iTopia peptide binding assay, A*0301). Settings: percent of positive control peptide binding; peptide at 1.11×10^−5M.
Protocol: as §1, §2, §3, §4, §5
For RRPPLAELA [Peptide 57], the “Peptide binding, MHC Class I Molecule A*0301” value was 2 % of control.
With RTVKCVNRN [Peptide 37] the “Peptide binding, MHC Class I Molecule A*0301” value was 12 % of control.
In the case of SADLDCDPI [Peptide 170], the “Peptide binding, MHC Class I Molecule A*0301” value is reported as 4 % of control.
For SAQPPLPDQ [Peptide 27], the “Peptide binding, MHC Class I Molecule A*0301” value was 0 % of control.
With SEAARTVKC [Peptide 35] the “Peptide binding, MHC Class I Molecule A*0301” value was 0 % of control.
For SFRNLTHLE [Peptide 127], the “Peptide binding, MHC Class I Molecule A*0301” value was 1 % of control.
For SGSNASVSA [Peptide 82], the “Peptide binding, MHC Class I Molecule A*0301” value was 3 % of control.
SLRQLDLSH [Peptide 72] was tested, and the “Peptide binding, MHC Class I Molecule A*0301” value was 11 % of control.
In the case of SSSPTSSAS [Peptide 16], the “Peptide binding, MHC Class I Molecule A*0301” value is reported as 2 % of control.
TDLPAYVRN [Peptide 44] was tested, and the “Peptide binding, MHC Class I Molecule A*0301” value was 1 % of control.
TEVPTDLPA [Peptide 42] was tested, and the “Peptide binding, MHC Class I Molecule A*0301” value was 0 % of control.
For VKCVNRNLT [Peptide 38], the “Peptide binding, MHC Class I Molecule A*0301” value was 0 % of control.
With VQGKDRLTC [Peptide 158] the “Peptide binding, MHC Class I Molecule A*0301” value was 6 % of control.
For VRNLFLTGN [Peptide 47], the “Peptide binding, MHC Class I Molecule A*0301” value was 0 % of control.
For VSAPSPLVE [Peptide 85], the “Peptide binding, MHC Class I Molecule A*0301” value was 7 % of control.
VSSSSPTSS [Peptide 15] was tested, and the “Peptide binding, MHC Class I Molecule A*0301” value was 2 % of control.
In the case of VVAALLAGR [Peptide 100], the “Peptide binding, MHC Class I Molecule A*0301” value is reported as 49 % of control.
For YHYRYEINA [Peptide 200], the “Peptide binding, MHC Class I Molecule A*0301” value was 1 % of control.
YRYEINADP [Peptide 201] was tested, and the “Peptide binding, MHC Class I Molecule A*0301” value was 1 % of control.

What follows are sequences tested on PBMCs recovered from patients treated with TroVax (assay: IFNγ ELISPOT with PBMCs from TroVax treated patients). Settings: 10 mer vs 9 mer experiment, absence of A2 blocking antibody, FIG. 14.
Type: cell-based, human
ARLALVLLGW [10 mer peptide 10] was tested, and the “IFNγ ELISPOT response” value was “no response”.
FLTGNQLAVL [10 mer peptide 49] was tested, and the “IFNγ ELISPOT response” value was “response”.
In the case of MPGGCSRGPA [10 mer peptide 1], the “IFNγ ELISPOT response” value is reported as “no response”.
NLFLTGNQLA [10 mer peptide 48] was tested, and the “IFNγ ELISPOT response” value was “no response”.
For NLTEVPTDLP [10 mer peptide 41], the “IFNγ ELISPOT response” value was “no response”.
With RLARLALVLL [10 mer peptide 9] the “IFNγ ELISPOT response” value was “response”.
With RLRLARLALV [10 mer peptide 8] the “IFNγ ELISPOT response” value was “response”.
With TGNQLAVLPA [10 mer peptide 50] the “IFNγ ELISPOT response” value was “no response”.

Same assay, conditions: PBMCs of patient TV2-018, X+6 wk and X+10 wk, FIG. 11-13
For FLTGNQLAVL [10 mer peptide 49], the “IFNγ ELISPOT response” value was “capable of inducing an ex-vivo IFNγ response”.
With NIRDACRDHM [10 mer peptide 194] the “IFNγ ELISPOT response” value was “capable of inducing an ex-vivo IFNγ response”.
With RLARLALVLL [10 mer peptide 9] the “IFNγ ELISPOT response” value was “capable of inducing an ex-vivo IFNγ response”.
RLRLARLALV [10 mer peptide 8] was tested, and the “IFNγ ELISPOT response” value was “capable of inducing an ex-vivo IFNγ response”.

Same assay, conditions: presence of A2 blocking antibody
FLTGNQLAVL [10 mer peptide 49] was tested, and the “IFNγ ELISPOT response with A2 blocking antibody (clone BB7.2) / A2 restriction” value was “A2 restricted”.
In the case of RLARLALVLL [10 mer peptide 9], the “IFNγ ELISPOT response with A2 blocking antibody (clone BB7.2) / A2 restriction” value is reported as “A2 restricted”.

What follows are sequences tested against MHC class I allele B*0702 (B7) (Homo sapiens, UniProt P01889) (assay: iTopia peptide binding assay, B*0702). Settings: percent of positive control peptide binding; peptide at 1.11×10^−5M.
Protocol: as §1, §2, §3, §4, §5
For RRPPLAELA [Peptide 57], the “Peptide binding, MHC Class I Molecule B*0702” value was 9 % of control.
With RTVKCVNRN [Peptide 37] the “Peptide binding, MHC Class I Molecule B*0702” value was 3 % of control.
For SADLDCDPI [Peptide 170], the “Peptide binding, MHC Class I Molecule B*0702” value was 3 % of control.
In the case of SAQPPLPDQ [Peptide 27], the “Peptide binding, MHC Class I Molecule B*0702” value is reported as 3 % of control.
For SEAARTVKC [Peptide 35], the “Peptide binding, MHC Class I Molecule B*0702” value was 0 % of control.
With SFRNLTHLE [Peptide 127] the “Peptide binding, MHC Class I Molecule B*0702” value was 0 % of control.
For SGSNASVSA [Peptide 82], the “Peptide binding, MHC Class I Molecule B*0702” value was 11 % of control.
For SLRQLDLSH [Peptide 72], the “Peptide binding, MHC Class I Molecule B*0702” value was 13 % of control.
With SSSPTSSAS [Peptide 16] the “Peptide binding, MHC Class I Molecule B*0702” value was 8 % of control.
TDLPAYVRN [Peptide 44] was tested, and the “Peptide binding, MHC Class I Molecule B*0702” value was 2 % of control.
In the case of TEVPTDLPA [Peptide 42], the “Peptide binding, MHC Class I Molecule B*0702” value is reported as 0 % of control.
With VKCVNRNLT [Peptide 38] the “Peptide binding, MHC Class I Molecule B*0702” value was 2 % of control.
VQGKDRLTC [Peptide 158] was tested, and the “Peptide binding, MHC Class I Molecule B*0702” value was 6 % of control.
VRNLFLTGN [Peptide 47] was tested, and the “Peptide binding, MHC Class I Molecule B*0702” value was 3 % of control.
In the case of VSAPSPLVE [Peptide 85], the “Peptide binding, MHC Class I Molecule B*0702” value is reported as 3 % of control.
VSSSSPTSS [Peptide 15] was tested, and the “Peptide binding, MHC Class I Molecule B*0702” value was 2 % of control.
In the case of VVAALLAGR [Peptide 100], the “Peptide binding, MHC Class I Molecule B*0702” value is reported as 7 % of control.
For YHYRYEINA [Peptide 200], the “Peptide binding, MHC Class I Molecule B*0702” value was 5 % of control.
In the case of YRYEINADP [Peptide 201], the “Peptide binding, MHC Class I Molecule B*0702” value is reported as 3 % of control.

These sequences were tested against MHC class I allele A*0201 (A2) (Homo sapiens, UniProt P04439, D140Y/D185E/D98H/E176V/E277Q/G131W/G231S/I119V/I121R/I166T/I218V/L300P/L318F/N151K/N90K/P208A/P217A/Q86G/Q94H/R138H/R169H/T345S) (assay: iTopia peptide binding assay, A*0201). Settings: percent of positive control peptide binding; peptide at 1.11×10^−5M.
Protocol: as §1, §2, §3, §4, §5
For RRPPLAELA [Peptide 57], the “Peptide binding, MHC Class I Molecule A*0201” value was 11 % of control.
RTVKCVNRN [Peptide 37] was tested, and the “Peptide binding, MHC Class I Molecule A*0201” value was 12 % of control.
With SADLDCDPI [Peptide 170] the “Peptide binding, MHC Class I Molecule A*0201” value was 4 % of control.
SAQPPLPDQ [Peptide 27] was tested, and the “Peptide binding, MHC Class I Molecule A*0201” value was 13 % of control.
SEAARTVKC [Peptide 35] was tested, and the “Peptide binding, MHC Class I Molecule A*0201” value was 1 % of control.
SFRNLTHLE [Peptide 127] was tested, and the “Peptide binding, MHC Class I Molecule A*0201” value was 1 % of control.
For SGSNASVSA [Peptide 82], the “Peptide binding, MHC Class I Molecule A*0201” value was 15 % of control.
SLRQLDLSH [Peptide 72] was tested, and the “Peptide binding, MHC Class I Molecule A*0201” value was 6 % of control.
In the case of SSSPTSSAS [Peptide 16], the “Peptide binding, MHC Class I Molecule A*0201” value is reported as 7 % of control.
In the case of TDLPAYVRN [Peptide 44], the “Peptide binding, MHC Class I Molecule A*0201” value is reported as 3 % of control.
For TEVPTDLPA [Peptide 42], the “Peptide binding, MHC Class I Molecule A*0201” value was 7 % of control.
VKCVNRNLT [Peptide 38] was tested, and the “Peptide binding, MHC Class I Molecule A*0201” value was 3 % of control.
VQGKDRLTC [Peptide 158] was tested, and the “Peptide binding, MHC Class I Molecule A*0201” value was 4 % of control.
For VRNLFLTGN [Peptide 47], the “Peptide binding, MHC Class I Molecule A*0201” value was 5 % of control.
For VSAPSPLVE [Peptide 85], the “Peptide binding, MHC Class I Molecule A*0201” value was 13 % of control.
In the case of VSSSSPTSS [Peptide 15], the “Peptide binding, MHC Class I Molecule A*0201” value is reported as 9 % of control.
With VVAALLAGR [Peptide 100] the “Peptide binding, MHC Class I Molecule A*0201” value was 11 % of control.
YHYRYEINA [Peptide 200] was tested, and the “Peptide binding, MHC Class I Molecule A*0201” value was 7 % of control.
YRYEINADP [Peptide 201] was tested, and the “Peptide binding, MHC Class I Molecule A*0201” value was 0 % of control.
